Measurements: paper PMC10663500, “High-throughput analysis system of interaction kinetics for data-driven antibody design” (Scientific Reports, 2023)
Residue numbers refer to the chain shown, from its start.

B1: toripalimab Fab L.F94Y (Fab, V domains shown)
VH: QGQLVQSGAEVKKPGASVKVSCKASGYTFTDYEMHWVRQAPIHGLEWIGVIESETGGTAYNQKFKGRVTITADKSTSTAYMELSSLRSEDTAVYYCAREGITTVATTYYWYFDVWGQGTTVTVSS
VL: DVVMTQSPLSLPVTLGQPASISCRSSQSIVHSNGNTYLEWYLQKPGQSPQLLIYKVSNRFSGVPDRFSGSGSGTDFTLKISRVEAEDVGVYYCYQGSHVPLTFGQGTKLEIK
notes: as the heavy chain of Sm3; light chain of Sm3 with this change; numbers count from the chain's first residue; source: Brevibacillus, culture supernatant (ammonium sulfate precipitate); not shown: 6xHis, C-terminal, kept; 6xHN, C-terminal, kept
B2: toripalimab Fab L.V99M (Fab, V domains shown)
VH: B1 VH
VL: B1 VL with Y94F, V99M
notes: as for B1
B3: toripalimab Fab L.S97A (Fab, V domains shown)
VH: B1 VH
VL: B1 VL with Y94F, S97A
notes: as for B1
B4: toripalimab Fab L.V99Q (Fab, V domains shown)
VH: B1 VH
VL: B1 VL with Y94F, V99Q
notes: as for B1
B5: toripalimab Fab L.H98A (Fab, V domains shown)
VH: B1 VH
VL: B1 VL with Y94F, H98A
notes: as for B1
B6: toripalimab Fab L.V99E (Fab, V domains shown)
VH: B1 VH
VL: B1 VL with Y94F, V99E
notes: as for B1
B7: toripalimab Fab L.P100D (Fab, V domains shown)
VH: B1 VH
VL: B1 VL with Y94F, P100D
notes: as for B1
B8: toripalimab Fab L.V99G (Fab, V domains shown)
VH: B1 VH
VL: B1 VL with Y94F, V99G
notes: as for B1
B9: toripalimab Fab H.E52Y (Fab, V domains shown)
VH: B1 VH with E52Y
VL: B1 VL with Y94F
notes: heavy chain of Sm3 with this change; numbers count from the chain's first residue; as the light chain of Sm3; source: Brevibacillus, culture supernatant (ammonium sulfate precipitate); not shown: 6xHis, C-terminal, kept; 6xHN, C-terminal, kept
B10: toripalimab Fab L.P100E (Fab, V domains shown)
VH: B1 VH
VL: B1 VL with Y94F, P100E
notes: as for B1
B11: toripalimab Fab L.Q95A (Fab, V domains shown)
VH: B1 VH
VL: B1 VL with Y94F, Q95A
notes: as for B1
B12: toripalimab Fab L.V99L (Fab, V domains shown)
VH: B1 VH
VL: B1 VL with Y94F, V99L
notes: as for B1
B13: toripalimab Fab L.P100A (Fab, V domains shown)
VH: B1 VH
VL: B1 VL with Y94F, P100A
notes: as for B1
B14: toripalimab Fab L.V99I (Fab, V domains shown)
VH: B1 VH
VL: B1 VL with Y94F, V99I
notes: as for B1
B15: toripalimab Fab L.V99P (Fab, V domains shown)
VH: B1 VH
VL: B1 VL with Y94F, V99P
notes: as for B1
B16: toripalimab Fab L.V99H (Fab, V domains shown)
VH: B1 VH
VL: B1 VL with Y94F, V99H
notes: as for B1
B17: toripalimab Fab L.V99A (Fab, V domains shown)
VH: B1 VH
VL: B1 VL with Y94F, V99A
notes: as for B1
B18: toripalimab Fab L.V99S (Fab, V domains shown)
VH: B1 VH
VL: B1 VL with Y94F, V99S
notes: as for B1
B19: toripalimab Fab L.V99Y (Fab, V domains shown)
VH: B1 VH
VL: B1 VL with Y94F, V99Y
notes: as for B1
B20: toripalimab Fab H.I51A (Fab, V domains shown)
VH: B1 VH with I51A
VL: B1 VL with Y94F
notes: as for B9
B21: toripalimab Fab L.H98Y (Fab, V domains shown)
VH: B1 VH
VL: B1 VL with Y94F, H98Y
notes: as for B1
B22: toripalimab Fab L.V99K (Fab, V domains shown)
VH: B1 VH
VL: B1 VL with Y94F, V99K
notes: as for B1
B23: toripalimab Fab L.V99W (Fab, V domains shown)
VH: B1 VH
VL: B1 VL with Y94F, V99W
notes: as for B1
B24: toripalimab Fab L.V99F (Fab, V domains shown)
VH: B1 VH
VL: B1 VL with Y94F, V99F
notes: as for B1
B25: toripalimab Fab L.V99D (Fab, V domains shown)
VH: B1 VH
VL: B1 VL with Y94F, V99D
notes: as for B1
B26: toripalimab Fab L.V99N (Fab, V domains shown)
VH: B1 VH
VL: B1 VL with Y94F, V99N
notes: as for B1

Assays:
[1] = biological target: T1, mouse programmed cell death protein 1 Fc fusion protein (mPD-1-Fc), mPD-1 C60S (aa 25-167) (Mus musculus, UniProt Q02242, stabilised); experiment: SPR; Carterra LSA; Fab from the ammonium sulfate precipitate of the culture supernatant immobilised on a NiHC200M chip; hPD-1 (1-1024 nM) or mPD-1-Fc (4-1024 nM) as analyte, fourfold dilution series, no regeneration; HBS-EP pH 7.4, 25 °C; medians over the spots of a construct, KD = koff/kon; conditions: one partner purified
T1 construct: not cleaved; source: Expi293F, purified (Protein A, SEC; dimeric fraction); not shown: Fc (human), C-terminal, kept
Method in brief: (§1)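 Human PD-1 (1–1024 nM) or mouse PD-1-Fc (4–1024 nM), in fourfold series, was flowed without regeneration over Fabs captured in duplicate on a NiHC200M chip (Carterra LSA, 25 °C), using 10 min association and 5 min dissociation. The Fabs had been recovered from Brevibacillus culture supernatants by ammonium sulfate precipitation and redissolved in HBS-EP. For binding constants, KD was defined as koff/kon from per-construct medians, with rates fitted by the kdka model under slow- or fast-dissociation settings (best fit) and unconfirmed binders set to kon 10^3 […] and koff 10^−2 s^−1.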

[2] = biological target: T2, human programmed cell death protein 1 (hPD-1) C93S (aa 24-167) (Homo sapiens, UniProt Q15116, C93S); experiment: as above; conditions: one partner purified
T2 construct: made as a fusion with a TEV site and human Fc; the Fc was cut off with TEV protease; source: Expi293F, purified (Protein A, TEV cleavage of Fc, SEC; monomer fractions); not shown: Fc (human), C-terminal, cleaved
Method in brief: as §1

T2 sequence (Q15116 24-167 C93S): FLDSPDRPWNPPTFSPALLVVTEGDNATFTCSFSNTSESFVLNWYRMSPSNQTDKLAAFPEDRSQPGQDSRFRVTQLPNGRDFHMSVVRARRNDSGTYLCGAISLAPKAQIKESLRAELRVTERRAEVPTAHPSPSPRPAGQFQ

Binder	Kd [1] [nM]	koff [1] [s⁻¹]	kon [1] [M⁻¹ s⁻¹]	Kd [2] [nM]	koff [2] [s⁻¹]	kon [2] [M⁻¹ s⁻¹]
B1	155	0.0129	83200	< 0.968	< 1e-05	10300
B2	590	0.00702	11900	1.43	3.17e-05	22100
B3	678	0.0274	40400	1.88	4.49e-05	23800
B4	445	0.0167	37600	8.06	6.39e-05	7930
B5	120	0.00523	43600	< 0.436	< 1e-05	22900
B6	201	0.00742	36800	< 1.03	< 1e-05	9690
B7	47.4	0.00142	30100	< 1.32	< 1e-05	7580
B8	< 0.848	< 1e-05	11800	1.75	1.44e-05	8230
B9	600	0.149	247000	49.4	0.000629	12700
B10	19.8	0.000491	24800	< 0.554	< 1e-05	18100
B11	130	0.00506	39000	2.28	4.22e-05	18500
B12	407	0.00629	15500	< 1.43	< 1e-05	7020
B13	89.8	0.00349	38900	< 0.513	< 1e-05	19500
B14	289	0.014	48500	< 0.7	< 1e-05	14300
B15	24.7	0.0007	28300	19.8	0.000192	9660
B16	334	0.00991	29600	23.1	0.000239	10400
B17	15.2	0.000353	23300	1.61	3.6e-05	22300
B18	4.51	6.95e-05	15400	< 1.16	< 1e-05	8660
B19	576	0.0369	63900	5.01	0.000155	30900
B20	630	0.04	63500	1.06	1.6e-05	15100
B21	396	0.0148	37400	0.737	1.34e-05	18100
B22	285	0.00439	15400	30.7	0.000131	4260
B23	254	0.0065	25600	45.3	0.000522	11500
B24	123	0.00104	8450	2.51	4.24e-05	16900
B25	19.8	0.000759	38300	1.62	1.8e-05	11100
B26	169	0.00665	39400	3.03	5.61e-05	18500
